Results from patent US20140087995A1 (published 2014).
Numbered stars: 1 amine (or outer) side, 2 acyl side, 3 side chain; on linkers, the order of the positions; unused ones are H or OH. Bridge positions count the residues as written; N and C are the ends. Side chains are listed from the residue outwards. Ends that are not written are not given here. * marks the point of attachment. C20 diacid = O=C(O)CCCCCCCCCCCCCCCCCCC(=O)*; γGlu = O=C(O)[C@H](CCC(=O)[*:2])N[*:1]; AEEA = NCCOCCOCC(=O)O

T1: human amylin receptor (amylin 3(a) receptor: human calcitonin receptor with RAMP-3) (human, UniProt P30988 25-474; O60896 24-148)
T1 construct: whole, on cells; also called hAmylin-R; hAmylinR
T1 sequence (looked up) 1: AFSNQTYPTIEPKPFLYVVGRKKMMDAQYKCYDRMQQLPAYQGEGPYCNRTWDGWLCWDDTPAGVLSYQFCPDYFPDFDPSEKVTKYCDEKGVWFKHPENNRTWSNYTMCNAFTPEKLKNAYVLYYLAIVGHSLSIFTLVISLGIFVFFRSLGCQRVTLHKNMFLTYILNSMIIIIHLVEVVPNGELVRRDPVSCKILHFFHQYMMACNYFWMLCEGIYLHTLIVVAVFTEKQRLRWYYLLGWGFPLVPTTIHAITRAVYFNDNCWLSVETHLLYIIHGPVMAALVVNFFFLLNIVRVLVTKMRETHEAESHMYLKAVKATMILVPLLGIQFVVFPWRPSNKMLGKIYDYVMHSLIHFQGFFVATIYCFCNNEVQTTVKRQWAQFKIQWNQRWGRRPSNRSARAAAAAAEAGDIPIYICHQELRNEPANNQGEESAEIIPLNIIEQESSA
T1 sequence (looked up) 2: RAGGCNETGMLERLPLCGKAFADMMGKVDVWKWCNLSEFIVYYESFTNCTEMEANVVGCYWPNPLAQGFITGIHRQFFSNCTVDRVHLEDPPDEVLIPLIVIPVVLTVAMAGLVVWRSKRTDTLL


Target: T1, human amylin receptor (amylin 3(a) …)
Assay: SPA displacement of 125I-rat amylin, hAmylin 3(a) receptor membranes
Summary of the method: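 SPA beads + BHK amylin 3(a)/CRE-luc membranes, 35 ng/μL final; buffer 50 mM Hepes pH 7.4, 1 mM CaCl2, 5 mM MgCl₂, 0.1% OA, 0.02% Tween20. 120 min, 25° C, shaken; scintillation count. IC₅₀ by one-site binding competition fit, taken as receptor affinity.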

| Binder | IC50 [nM] |
| --- | --- |
| K([AEEA-C20 diacid])CNTATCATQRLANFLRHSSPNFGAIPSSTNVGSNTY-NH2 (disulfide 2-7; N-terminus assumed; SMILES CC[C@H](C)[C@H](NC(=O)[C@H](C)NC(=O)CNC(=O)[C@H](Cc1ccccc1)NC(=O)[C@H](CC(N)=O)NC(=O)[C@@H]1CCCN1C(=O)[C@H](CO)NC(=O)[C@H](CO)NC(=O)[C@H](Cc1c[nH]cn1)NC(=O)[C@H](CCCNC(=N)N)NC(=O)[C@H](CC(C)C)NC(=O)[C@H](Cc1ccccc1)NC(=O)[C@H](CC(N)=O)NC(=O)[C@H](C)NC(=O)[C@H](CC(C)C)NC(=O)[C@H](CCCNC(=N)N)NC(=O)[C@H](CCC(N)=O)NC(=O)[C@@H](NC(=O)[C@H](C)NC(=O)[C@@H]1CSSC[C@H](NC(=O)[C@@H](N)CCCCNC(=O)COCCOCCNC(=O)CCCCCCCCCCCCCCCCCCC(=O)O)C(=O)N[C@@H](CC(N)=O)C(=O)N[C@@H]([C@@H](C)O)C(=O)N[C@@H](C)C(=O)N[C@@H]([C@@H](C)O)C(=O)N1)[C@@H](C)O)C(=O)N1CCC[C@H]1C(=O)N[C@@H](CO)C(=O)N[C@@H](CO)C(=O)N[C@H](C(=O)N[C@@H](CC(N)=O)C(=O)N[C@H](C(=O)NCC(=O)N[C@@H](CO)C(=O)N[C@@H](CC(N)=O)C(=O)N[C@H](C(=O)N[C@@H](Cc1ccc(O)cc1)C(N)=O)[C@@H](C)O)C(C)C)[C@@H](C)O, also called 43; compound 43) [N^ε1-[2-[2-[2-(19-carboxynonadecanoylamino)ethoxy]ethoxy]acetyl]-[Arg17,Pro21,Pro27]-h-amylin] | 0.076 |
| K([AEEA-γGlu-C20 diacid])CNTATCATQRLANFLRHSSPNFGAIPSSTNVGSNTY-NH2 (disulfide 2-7; N-terminus assumed; SMILES CC[C@H](C)[C@H](NC(=O)[C@H](C)NC(=O)CNC(=O)[C@H](Cc1ccccc1)NC(=O)[C@H](CC(N)=O)NC(=O)[C@@H]1CCCN1C(=O)[C@H](CO)NC(=O)[C@H](CO)NC(=O)[C@H](Cc1c[nH]cn1)NC(=O)[C@H](CCCNC(=N)N)NC(=O)[C@H](CC(C)C)NC(=O)[C@H](Cc1ccccc1)NC(=O)[C@H](CC(N)=O)NC(=O)[C@H](C)NC(=O)[C@H](CC(C)C)NC(=O)[C@H](CCCNC(=N)N)NC(=O)[C@H](CCC(N)=O)NC(=O)[C@@H](NC(=O)[C@H](C)NC(=O)[C@@H]1CSSC[C@H](NC(=O)[C@@H](N)CCCCNC(=O)COCCOCCNC(=O)CC[C@H](NC(=O)CCCCCCCCCCCCCCCCCCC(=O)O)C(=O)O)C(=O)N[C@@H](CC(N)=O)C(=O)N[C@@H]([C@@H](C)O)C(=O)N[C@@H](C)C(=O)N[C@@H]([C@@H](C)O)C(=O)N1)[C@@H](C)O)C(=O)N1CCC[C@H]1C(=O)N[C@@H](CO)C(=O)N[C@@H](CO)C(=O)N[C@H](C(=O)N[C@@H](CC(N)=O)C(=O)N[C@H](C(=O)NCC(=O)N[C@@H](CO)C(=O)N[C@@H](CC(N)=O)C(=O)N[C@H](C(=O)N[C@@H](Cc1ccc(O)cc1)C(N)=O)[C@@H](C)O)C(C)C)[C@@H](C)O, also called 41; compound 41) | 0.427 |
| K([γGlu-C20 diacid])RCNTATCATQRLANFLRHSSPNFGAIPSSTNVGSHTY-NH2 (disulfide 3-8; N-terminus assumed; SMILES CC[C@H](C)[C@H](NC(=O)[C@H](C)NC(=O)CNC(=O)[C@H](Cc1ccccc1)NC(=O)[C@H](CC(N)=O)NC(=O)[C@@H]1CCCN1C(=O)[C@H](CO)NC(=O)[C@H](CO)NC(=O)[C@H](Cc1c[nH]cn1)NC(=O)[C@H](CCCNC(=N)N)NC(=O)[C@H](CC(C)C)NC(=O)[C@H](Cc1ccccc1)NC(=O)[C@H](CC(N)=O)NC(=O)[C@H](C)NC(=O)[C@H](CC(C)C)NC(=O)[C@H](CCCNC(=N)N)NC(=O)[C@H](CCC(N)=O)NC(=O)[C@@H](NC(=O)[C@H](C)NC(=O)[C@@H]1CSSC[C@H](NC(=O)[C@H](CCCNC(=N)N)NC(=O)[C@@H](N)CCCCNC(=O)CC[C@H](NC(=O)CCCCCCCCCCCCCCCCCCC(=O)O)C(=O)O)C(=O)N[C@@H](CC(N)=O)C(=O)N[C@@H]([C@@H](C)O)C(=O)N[C@@H](C)C(=O)N[C@@H]([C@@H](C)O)C(=O)N1)[C@@H](C)O)C(=O)N1CCC[C@H]1C(=O)N[C@@H](CO)C(=O)N[C@@H](CO)C(=O)N[C@H](C(=O)N[C@@H](CC(N)=O)C(=O)N[C@H](C(=O)NCC(=O)N[C@@H](CO)C(=O)N[C@@H](Cc1c[nH]cn1)C(=O)N[C@H](C(=O)N[C@@H](Cc1ccc(O)cc1)C(N)=O)[C@@H](C)O)C(C)C)[C@@H](C)O, also called 44; compound 44) | 0.275 |

Other lines, results leading:

| IC50 [nM] | Binder |
| --- | --- |
| 0.195 | {C20 diacid-γGlu}-GRCNTATCATQRLANFLRHSSPNFGAIPSSTNVGSNTY-NH2 (disulfide 3-8; SMILES CC[C@H](C)[C@H](NC(=O)[C@H](C)NC(=O)CNC(=O)[C@H](Cc1ccccc1)NC(=O)[C@H](CC(N)=O)NC(=O)[C@@H]1CCCN1C(=O)[C@H](CO)NC(=O)[C@H](CO)NC(=O)[C@H](Cc1c[nH]cn1)NC(=O)[C@H](CCCNC(=N)N)NC(=O)[C@H](CC(C)C)NC(=O)[C@H](Cc1ccccc1)NC(=O)[C@H](CC(N)=O)NC(=O)[C@H](C)NC(=O)[C@H](CC(C)C)NC(=O)[C@H](CCCNC(=N)N)NC(=O)[C@H](CCC(N)=O)NC(=O)[C@@H](NC(=O)[C@H](C)NC(=O)[C@@H]1CSSC[C@H](NC(=O)[C@H](CCCNC(=N)N)NC(=O)CNC(=O)CC[C@H](NC(=O)CCCCCCCCCCCCCCCCCCC(=O)O)C(=O)O)C(=O)N[C@@H](CC(N)=O)C(=O)N[C@@H]([C@@H](C)O)C(=O)N[C@@H](C)C(=O)N[C@@H]([C@@H](C)O)C(=O)N1)[C@@H](C)O)C(=O)N1CCC[C@H]1C(=O)N[C@@H](CO)C(=O)N[C@@H](CO)C(=O)N[C@H](C(=O)N[C@@H](CC(N)=O)C(=O)N[C@H](C(=O)NCC(=O)N[C@@H](CO)C(=O)N[C@@H](CC(N)=O)C(=O)N[C@H](C(=O)N[C@@H](Cc1ccc(O)cc1)C(N)=O)[C@@H](C)O)C(C)C)[C@@H](C)O, also called 46; compound 46) [N^-1-[(4S)-4-carboxy-4-(19-carboxynonadecanoylamino)butanoyl]-Gly[Arg1,Arg17,Pro21,Pro27]-h-amylin] |
| 0.344 | {C20 diacid-γGlu}-GRCNTATCATQRLANFLRHSSPNFGAIPSSTNVGSHTY-NH2 (disulfide 3-8; SMILES CC[C@H](C)[C@H](NC(=O)[C@H](C)NC(=O)CNC(=O)[C@H](Cc1ccccc1)NC(=O)[C@H](CC(N)=O)NC(=O)[C@@H]1CCCN1C(=O)[C@H](CO)NC(=O)[C@H](CO)NC(=O)[C@H](Cc1c[nH]cn1)NC(=O)[C@H](CCCNC(=N)N)NC(=O)[C@H](CC(C)C)NC(=O)[C@H](Cc1ccccc1)NC(=O)[C@H](CC(N)=O)NC(=O)[C@H](C)NC(=O)[C@H](CC(C)C)NC(=O)[C@H](CCCNC(=N)N)NC(=O)[C@H](CCC(N)=O)NC(=O)[C@@H](NC(=O)[C@H](C)NC(=O)[C@@H]1CSSC[C@H](NC(=O)[C@H](CCCNC(=N)N)NC(=O)CNC(=O)CC[C@H](NC(=O)CCCCCCCCCCCCCCCCCCC(=O)O)C(=O)O)C(=O)N[C@@H](CC(N)=O)C(=O)N[C@@H]([C@@H](C)O)C(=O)N[C@@H](C)C(=O)N[C@@H]([C@@H](C)O)C(=O)N1)[C@@H](C)O)C(=O)N1CCC[C@H]1C(=O)N[C@@H](CO)C(=O)N[C@@H](CO)C(=O)N[C@H](C(=O)N[C@@H](CC(N)=O)C(=O)N[C@H](C(=O)NCC(=O)N[C@@H](CO)C(=O)N[C@@H](Cc1c[nH]cn1)C(=O)N[C@H](C(=O)N[C@@H](Cc1ccc(O)cc1)C(N)=O)[C@@H](C)O)C(C)C)[C@@H](C)O, also called 47; compound 47) |
